Target: Flag-NEO1 (UniProt Q92859)
Assay: immunostaining of cells or tissue; plate-based cell binding in 384-well plates: transfected COS-7 cells, blocked with PBS 1% BSA, CBLN4-Fc for 1 h on ice, fixed, detected with Alexa Fluor-488 anti-human IgG; candidate screen, titration series and DCC domain mapping

Sequence of Flag-NEO1 (Q92859 34-1461): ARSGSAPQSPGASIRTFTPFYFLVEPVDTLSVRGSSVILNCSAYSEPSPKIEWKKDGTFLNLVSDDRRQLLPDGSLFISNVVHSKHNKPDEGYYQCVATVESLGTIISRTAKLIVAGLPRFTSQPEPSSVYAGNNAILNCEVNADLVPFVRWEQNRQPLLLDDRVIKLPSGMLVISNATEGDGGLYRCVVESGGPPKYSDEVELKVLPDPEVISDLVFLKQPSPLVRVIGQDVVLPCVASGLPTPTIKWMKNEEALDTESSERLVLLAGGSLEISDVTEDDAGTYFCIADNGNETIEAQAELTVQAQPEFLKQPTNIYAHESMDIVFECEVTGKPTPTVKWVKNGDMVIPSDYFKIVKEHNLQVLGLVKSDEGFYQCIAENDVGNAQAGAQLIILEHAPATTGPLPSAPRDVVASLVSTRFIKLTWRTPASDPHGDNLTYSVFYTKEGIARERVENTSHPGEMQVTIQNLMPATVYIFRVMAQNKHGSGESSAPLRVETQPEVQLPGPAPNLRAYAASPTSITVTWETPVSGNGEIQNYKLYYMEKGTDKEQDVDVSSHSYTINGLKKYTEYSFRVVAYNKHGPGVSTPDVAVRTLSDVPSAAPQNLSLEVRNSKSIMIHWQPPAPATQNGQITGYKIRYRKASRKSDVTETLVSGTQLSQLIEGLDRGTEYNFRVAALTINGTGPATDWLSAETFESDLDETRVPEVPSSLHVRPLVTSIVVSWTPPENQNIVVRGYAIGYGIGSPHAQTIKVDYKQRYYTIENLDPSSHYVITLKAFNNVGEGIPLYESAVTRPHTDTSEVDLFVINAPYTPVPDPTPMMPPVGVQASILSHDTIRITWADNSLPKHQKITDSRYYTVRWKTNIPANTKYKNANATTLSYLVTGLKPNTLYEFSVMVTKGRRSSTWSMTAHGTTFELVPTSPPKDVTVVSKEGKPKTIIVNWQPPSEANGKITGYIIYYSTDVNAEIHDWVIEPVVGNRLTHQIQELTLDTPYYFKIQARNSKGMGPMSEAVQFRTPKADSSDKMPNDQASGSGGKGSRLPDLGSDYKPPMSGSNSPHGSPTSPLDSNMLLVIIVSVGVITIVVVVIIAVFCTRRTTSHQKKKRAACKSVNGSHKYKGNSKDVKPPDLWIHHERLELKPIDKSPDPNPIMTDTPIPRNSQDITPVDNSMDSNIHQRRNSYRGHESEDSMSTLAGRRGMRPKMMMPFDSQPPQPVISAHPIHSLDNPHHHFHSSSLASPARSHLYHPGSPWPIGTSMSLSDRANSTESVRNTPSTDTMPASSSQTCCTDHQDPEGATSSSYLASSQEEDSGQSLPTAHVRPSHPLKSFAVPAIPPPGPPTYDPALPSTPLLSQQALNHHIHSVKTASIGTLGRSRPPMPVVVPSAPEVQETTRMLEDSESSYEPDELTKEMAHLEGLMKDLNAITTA

## human CBLN4 (M1-L201) with a C-terminal Fc tag (from UniProt Q9NTU7 28-201) (Fc fusion)
  lowest CBLN4-Fc concentration at which binding was detected: 280 nM
